One block for each substance: values may come before it.
Tests used:
[1] = biological target: chimera with the ECD of mGluR1 and the TMD (and C-terminal) of mGluR2 (rat); assay: single molecule subunit counting
[2] = biological target: chimera with the ECD of mGluR1 and the TMD (and C-terminal) of mGluR2 (rat); assay: single molecule pull-down
[3] = biological target: full length HA-mGluR2 (rat) (UniProt P31421); assay: co-IP
[4] = biological target: mGluR2-GFP truncated by removing the entire extracellular domain (rat); assay: single molecule pull-down
[5] = biological target: chimera with the ECD of mGluR2 and the TMD (and C-terminal) of mGluR1 (rat); assay: single molecule subunit counting
[6] = biological target: chimera with the ECD of mGluR2 and the TMD (and C-terminal) of mGluR1 (rat); assay: single molecule pull-down

Sequence of full length HA-mGluR2 (rat) (P31421 19-872): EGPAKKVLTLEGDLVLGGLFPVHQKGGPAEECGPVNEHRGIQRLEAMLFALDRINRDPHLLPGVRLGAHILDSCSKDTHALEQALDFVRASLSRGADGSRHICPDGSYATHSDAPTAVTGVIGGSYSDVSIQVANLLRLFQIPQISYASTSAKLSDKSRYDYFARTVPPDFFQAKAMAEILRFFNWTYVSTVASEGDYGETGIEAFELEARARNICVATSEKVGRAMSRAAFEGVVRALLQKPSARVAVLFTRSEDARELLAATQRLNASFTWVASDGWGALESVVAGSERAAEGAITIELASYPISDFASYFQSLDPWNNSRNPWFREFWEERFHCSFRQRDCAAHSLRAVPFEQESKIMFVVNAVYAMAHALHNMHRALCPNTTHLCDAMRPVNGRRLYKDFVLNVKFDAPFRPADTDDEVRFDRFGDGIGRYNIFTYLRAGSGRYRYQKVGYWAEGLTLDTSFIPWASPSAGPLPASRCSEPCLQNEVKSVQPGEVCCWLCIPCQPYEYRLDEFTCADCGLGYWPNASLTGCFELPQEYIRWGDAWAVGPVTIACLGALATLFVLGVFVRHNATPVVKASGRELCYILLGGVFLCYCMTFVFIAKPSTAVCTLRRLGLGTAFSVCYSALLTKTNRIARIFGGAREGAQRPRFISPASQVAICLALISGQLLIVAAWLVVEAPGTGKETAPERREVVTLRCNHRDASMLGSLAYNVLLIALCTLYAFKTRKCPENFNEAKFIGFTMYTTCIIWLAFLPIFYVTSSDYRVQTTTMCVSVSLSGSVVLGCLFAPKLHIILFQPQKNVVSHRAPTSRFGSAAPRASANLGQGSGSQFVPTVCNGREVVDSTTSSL
Sequence of mGluR2-GFP truncated by removing the entire extracellular domain (domain or fragment) (P31421 19-872): as above
Sequence of GFP-tagged isolated ligand binding domain of mGluR2 (domain or fragment) (P31421 19-872): as above

stoichiometry N [1]: 2 | stoichiometry N [2]: 2
Substance: chimera with the ECD of mGluR1 and the TMD (and C-terminal) of mGluR2 (receptor)

percent of spots bleaching in a single step [3]: 89.6% | percent of spots bleaching in two steps [4]: 30%
Substance: mGluR2-GFP truncated by removing the entire extracellular domain (domain or fragment)

percent of spots bleaching in a single step [3]: 92.4%
Substance: GFP-tagged isolated ligand binding domain of mGluR2 (domain or fragment)

stoichiometry N [5]: 2 | stoichiometry N [6]: 2
Substance: chimera with the ECD of mGluR2 and the TMD (and C-terminal) of mGluR1 (receptor)

Source: PMC5053906
